From patent US20250376709A1, “PAPB AS A BIMOIETY-DEPENDENT THIOETHER INSTALLATION TOOL” (UNIVERSITY OF UTAH RESEARCH FOUNDATION, priority 2022, published 2025)
Positions count from the first letter of the chain named. Square brackets hold non-standard residues; d marks the D form. Ends that are not written are not given here.

Tests used:
PapB = assay: Enzymatic reactions of msPapA peptides with PapB (thioether crosslinking, U/HPLC-MS readout); type: biochemical; settings: for extent of conversion to crosslinked peptide by PapB (in words): incubation with PapB, SAM and reductant, MS isotopic envelope; for substrate conversion: after 300 s; for substrate converted to crosslinked product: assessed from MS isotopic envelope after PapB
Procedure: Assays were conducted in a Coy Laboratories anaerobic chamber with 98% N2/2% H2 atmosphere at room temperature. All reactions contained 0.05 M PIPES·NaOH (pH 7.4), 2 mM DTT, 2.4 mM SAM (enzymatically synthesized and purified as previously described (deGruyter, J. N., et al. Biochem. 2017, 56 (30), 3863-3873)), ˜100-400 μM msPapA variants (concentration determined by peptide dry weight or by spectroscopic analysis in the case of Y19W), and […]-10 μM PapB. Either dithionite (dT) or flavodoxin (FldA), flavodoxin reductase (FPR) and NADPH were used to reduce PapB. For the assays that used chemical reductant, the total concentration was 2 mM dT. For the assays that used the biological reducing system, the mixtures contained 25 μM FldA, 2 μM FPR and 2 mM NADPH. The total volume of the reactions ranged from 0.1 mL for initial screenings to 0.5 mL for MS/MS Collision Induced Dissociation (CID) fragmentation experiments described below. Control reactions in the absence of dT, SAM and PapB were also conducted. Reactions were initiated with the addition of PapB and quenched at times ranging from 15 s to 2 h by the addition of 10% of the reaction volume of 30% (w/v) trichloroacetic acid (TCA, ACS grade). The samples were centrifuged at 16,000×g for 10 min in a microcentrifuge to pellet the precipitated PapB.
The assays were analyzed using either a Vanquish UHPLC with a diode-array detector connected to a Q-Exactive mass spectrometer or an Ultimate 3000 HPLC with a diode-array detector connected to a LTQ OrbiTrap XL mass spectrometer. Each was operated in positive ion mode, the FT analyzer was set to 100,000 resolution, 1 microscan, and 200 ms maximum injection time. Xcalibur software was used to analyze data. A 20 μL aliquot was injected onto a Hypersil GOLD C18 column (2.1 mm×150 mm, 1.9 μm particle size) (Thermo Fisher) pre-equilibrated in 0.1% (v/v) LC-MS Optima TFA (Fisher in LC-MS Optima water (Fisher). Chromatographic steps were carried out at 0.2 mL/min with buffer A containing 0.1% (v/v) TFA in Optima water and buffer B containing Optima grade acetonitrile with 0.1% (v/v) TFA. The separation consisted of washing with 100% A from 0 to 3 min, followed by a linear gradient from 100% to 0% A from 3 to 6 min, washing with 0% A from 6 to 10 min, and reequilibration with 100% A from 10 to 14 min. […]

Leader-CSNDAAA = system: T1, Leader-CSNDAAA
T1 sequence: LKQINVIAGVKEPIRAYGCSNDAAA

Leader-AAACSANDA = system: T2, Leader-AAACSANDA
T2 sequence: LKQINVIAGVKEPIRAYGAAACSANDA

Leader-CSDNNAAA = system: T3, Leader-CSDNNAAA
T3 sequence: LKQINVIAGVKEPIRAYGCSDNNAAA

leader-^DCSAN^DDA = system: T4, leader-^DCSAN^DDA
T4 sequence: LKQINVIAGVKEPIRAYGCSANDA

Leader-CSAAAANDA = system: T5, Leader-CSAAAANDA
T5 sequence: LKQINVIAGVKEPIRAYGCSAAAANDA

[1] = system: T6, minimal substrate PapA (msPapA)
T6 sequence: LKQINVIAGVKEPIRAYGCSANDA

Leader-AAACSANDACSANDA = system: T7, Leader-AAACSANDACSANDA
T7 sequence: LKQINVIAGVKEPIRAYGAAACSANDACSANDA

Leader-CSAAANDA = system: T8, Leader-CSAAANDA
T8 sequence: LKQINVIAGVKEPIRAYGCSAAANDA

Leader-^DDSANCA = system: T9, Leader-^DDSANCA
T9 sequence: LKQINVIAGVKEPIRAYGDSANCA

Y17W msPapA = system: T10, Y17W msPapA
T10 sequence: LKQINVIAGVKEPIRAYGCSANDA

Leader-AAACSAADAADA = system: T11, Leader-AAACSAADAADA
T11 sequence: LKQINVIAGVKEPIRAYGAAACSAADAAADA

leader-^DCSANDA = system: T12, leader-^DCSANDA
T12 sequence: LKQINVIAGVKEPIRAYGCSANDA

Leader-^DDSAN^DCA = system: T13, Leader-^DDSAN^DCA
T13 sequence: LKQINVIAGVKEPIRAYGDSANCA

Leader-DSANCA = system: T14, Leader-DSANCA
T14 sequence: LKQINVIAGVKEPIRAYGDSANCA

Leader-AAAASACDAADA = system: T15, Leader-AAAASACDAADA
T15 sequence: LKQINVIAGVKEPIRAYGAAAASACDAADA

Leader-DSAN^DCA = system: T16, Leader-DSAN^DCA
T16 sequence: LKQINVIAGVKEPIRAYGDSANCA

Leader-AAACSACDAADA = system: T17, Leader-AAACSACDAADA
T17 sequence: T15 sequence with A22C

leader-CSAN^DDA = system: T18, leader-CSAN^DDA
T18 sequence: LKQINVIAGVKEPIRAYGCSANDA

Leader-CDSNNAANA = system: T19, Leader-CDSNNAANA
T19 sequence: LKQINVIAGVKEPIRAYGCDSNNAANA

Leader-CSAANDA = system: T20, Leader-CSAANDA
T20 sequence: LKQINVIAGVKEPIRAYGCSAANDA

LKQINVIAGVKEPIRAYGCDSNNAANA [CX0D]
extent of conversion to crosslinked peptide by PapB (in words) (PapB): did not fully react

LKQINVIAGVKEPIRAYGCSAAAANDA [CX6D]
extent of conversion to crosslinked peptide by PapB (in words) (PapB): did not fully react

LKQINVIAGVKEPIRAYGCSANDA [msPapA, reference compound]
kinetics with dT relative to biological reducing system (PapB; 430 nM PapB, 191 μM peptide): roughly 3 fold | substrate conversion (PapB; biological reducing system (FldA/FPR/NADPH)): 100% | substrate conversion (PapB; chemical reducing system (dT)): 100% | turnover number (approximation of kcat for PapB) (PapB; dithionite (dT) as reductant, 430 nM PapB, 191 μM peptide, linear portion of curve, FIG. 5 names Y17W msPapA): 7.4 ± 0.1 s⁻¹ | extent of conversion to crosslinked peptide by PapB (in words) (PapB): complete conversion

LKQINVIAGVKEPIRAYGCSAN^DDA [leader-CSAN^DDA]
extent of conversion to crosslinked peptide by PapB (in words) (PapB): conversion is not complete

LKQINVIAGVKEPIRAYGENLYFQ^DFCF^DWKTET [octreotide analog]
substrate converted to crosslinked product (PapB): ~75%

LKQINVIAGVKEPIRAYGPCSAN^DDA [leader-^DCSAN^DDA]
substrate converted to crosslinked product (PapB): ≥ 15% | extent of conversion to crosslinked peptide by PapB (in words) (PapB): processed inefficiently

LKQINVIAGVKEPIRAYG^DCSANDA (LKQINVIAGVKEPIRAYG[dC]SANDA) [leader-^DCSANDA]
extent of conversion to crosslinked peptide by PapB (in words) (PapB): full conversion

PapB
thioether crosslinking (loss of 2 Da, MS) (Leader-CSNDAAA): the reactions with 1-5 intervening residues appear to go to completion | thioether crosslinking (loss of 2 Da, MS) (Leader-AAACSANDA): all the peptides that were examined were efficiently crosslinked by the enzyme | thioether crosslinking (loss of 2 Da, MS) (Leader-CSDNNAAA): the reactions with 1-5 intervening residues appear to go to completion | substrate converted to crosslinked product (MS) (leader-^DCSAN^DDA): at least ˜15% of the substrate is converted to product | thioether crosslinking (loss of 2 Da, MS) (Leader-CSAAAANDA): CX0D (FIG. 8B) and CX6D (FIG. 8C) did not fully react--suggesting that PapB does not processes these motifs efficiently | thioether crosslinking (loss of 2 Da, HR-MS) [1]: complete conversion of msPapA to a singly crosslinked peptide is routinely observed using 0.1 nmol PapB and 20 mmol msPapA in 5 min | thioether crosslinking (loss of 2 Da, MS) [1]: the reactions with 1-5 intervening residues appear to go to completion | thioether crosslinking (loss of 4 Da, MS) (Leader-AAACSANDACSANDA): all the peptides that were examined were efficiently crosslinked by the enzyme | thioether crosslinking (loss of 2 Da, MS) (Leader-CSAAANDA): the reactions with 1-5 intervening residues appear to go to completion | thioether crosslinking (MS) (Leader-^DDSANCA): we were unable to observe any crosslinked product with the transposed peptides, either with L- or D-amino acids | turnover number with dithionite (approximation of kcat) (Y17W msPapA): 7.4±0.1 s^-1 with dT | turnover number with the biological reducing system FldA/FPR/NADPH (approximation of kcat) (Y17W msPapA): 2.6=0.2 s^-1 are estimated with the biological reducing system | thioether crosslinking (loss of 2 Da, MS) (Leader-AAACSAADAADA): all the peptides that were examined were efficiently crosslinked by the enzyme | thioether crosslinking (loss of 2 Da, MS) (leader-^DCSANDA): full conversion to the crosslinked peptide is seen, as evidenced by the loss of 2 Da | thioether crosslinking (MS) (Leader-^DDSAN^DCA): we were unable to observe any crosslinked product with the transposed peptides, either with L- or D-amino acids | thioether crosslinking (MS) (Leader-DSANCA): we were unable to observe any crosslinked product with the transposed peptides, either with L- or D-amino acids | thioether crosslinking (loss of 2 Da, MS) (Leader-AAAASACDAADA): all the peptides that were examined were efficiently crosslinked by the enzyme | thioether crosslinking (MS) (Leader-DSAN^DCA): we were unable to observe any crosslinked product with the transposed peptides, either with L- or D-amino acids | thioether crosslinking (loss of 4 Da, MS) (Leader-AAACSACDAADA): all the peptides that were examined were efficiently crosslinked by the enzyme | thioether crosslinking (loss of 2 Da, MS) (leader-CSAN^DDA): significant substrate turnover is observed as well, but the conversion is not complete | thioether crosslinking (loss of 2 Da, MS) (Leader-CDSNNAANA): CX0D (FIG. 8B) and CX6D (FIG. 8C) did not fully react--suggesting that PapB does not processes these motifs efficiently | thioether crosslinking (loss of 2 Da, MS) (Leader-CSAANDA): the reactions with 1-5 intervening residues appear to go to completion
